One may read the Kd as the concentration at which binding is half-saturated.

For this experiment, the target named is T1, DIP-β-G, recombinant protein for SPR (Drosophila melanogaster).
T1 chain: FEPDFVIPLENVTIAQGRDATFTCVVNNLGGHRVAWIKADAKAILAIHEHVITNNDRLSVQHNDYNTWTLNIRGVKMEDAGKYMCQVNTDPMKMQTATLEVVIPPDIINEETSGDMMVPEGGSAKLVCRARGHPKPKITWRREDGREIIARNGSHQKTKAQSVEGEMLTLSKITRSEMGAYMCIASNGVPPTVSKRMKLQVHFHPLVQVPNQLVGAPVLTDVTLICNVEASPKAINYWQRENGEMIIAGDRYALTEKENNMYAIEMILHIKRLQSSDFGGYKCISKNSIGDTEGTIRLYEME
Briefly: SPR.

B1: Dpr10-A, recombinant protein for SPR (domain or fragment, Drosophila melanogaster)
chain: WNEPYFDLTMPRNITSLVGKSAYLGCRVKHLGNKTVAWIRHRDLHILTVGTYTYTTDQRFQTSYHRDIDEWTLQIKWAQQRDAGVYECQISTQPVRSYSVNLNIVDLIDAETSDIMQQYYNDDAFYIAENRVYQSSNDEFAGMFGPIQTVAVPTATILGGPDLYVDKGSTINLTCIIKFSPEPPTHIFWYHQDKVLSEETSGGRLKFKTIKSEETKSILLIYDADLLHSGKYSCYPSNTEIASIRVHVLQGE
With B1, the Kd was determined as 5.76 µM.

(Values after paper doi:10.1101/2024.03.04.583391 (bioRxiv, 2024).)
